This note sets out measurements from the nanobody polyreactivity screen of Harvey et al. (2022).

The nature of the data set: yeast display, Sf9 membrane polyspecificity reagent, FACS + sequencing; frameworks hold sequencing errors. Summed up: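 Synthetic nanobody libraries on Saccharomyces cerevisiae BJ5465 were galactose-induced for 36–48 hours, stained 1 hour at 4 °C with 10% biotinylated, detergent-solubilized Sf9 membrane reagent and enriched on streptavidin microbeads. FACS then separated cells into low and high (top ~1%) gates by anti-HA (expression) and streptavidin (reagent binding) fluorescence. Genes were colony-PCR amplified, MiSeq 2 × 250 sequenced and CDR-length filtered. A clone's polyreactivity label is that of its gate of origin.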
In the case of “QVQLVESGGGLVQAGGSLRLSCAASGSIFEYNTMGWYRQAPGKERELVATISWSGDSTYYADSVKGRFTISRDNAKNTVYLQMNSLKPEDTAVYYCAAQRGAPVDGKSDYWGQGTQVIVSS”, the “polyreactivity (PSR sort gate)” value was “low polyreactivity”.
Next, “QVQLVESGGGLVQAGGSLRLSCAASGNTFYRYAMGWYRQAPGKERELVAAITWSGSRTYYADSVKGRFTISRDNAKNTVYLQMNSLKPEDTAVYYCAAPFWYVGPAMDYWGQGTQVTVSS”: “low polyreactivity”; “QVQLVESGGGLVQAGGSLRLSCAASGFTFRWYAMGWYRQAPGKETELVAAISRDGSTNYADSVKGRFTISRDNAKNTVYLQMNSLKPEDTAFYYCATDSYPWGRSTGWRKQKGYYWGQGTKVTVSS”: “high polyreactivity”; “QVQLVESGGGLVQAGGSLRLSCAASGRIIVKYAMRSYRQAPGKERELVAAITNSGGRTYYAACVKGRFTISRDNAKNTVYFQMNSLKPEDTAVYYCAALFHASTRQMDYWGQGTQVTVSS”: “high polyreactivity”.
Next, “QVQLVESGGGLVQAGGSLRLSCAASGRIFPANAMGWYRQAPWKERELVAAISSTGGSTYYADSVKGRFTISRDNAKNSVYLQMKSLKPEDTAVYYCAKVHYRWPRVTWPNVWWSFEYWGQGTQVSVSS”: “low polyreactivity”; “QVQLVESGGGLVQAGGSLRLSCAASGRIFSRNAMGWYRQAPGKERELVAAITSGGSTYYADSVKGRFTISRDNAKNTVYLQMNSLKPEDTAVFYCAKRLTYYSWYHRYDYWGQGTQVTVLS”: “high polyreactivity”.
The value for “QVQLVESGGGLVQAGGSLRLSCAASGLTFWYYAMGWYRQAPGKERELVARITRSGVGTYYADSVKGRFTISRDNAKNTVYLQMNSLKPEDTAVYYCNARYQYSWVRYGYDYWGQGTQVTVSS” was “high polyreactivity”; that for “QVQLVESGGGLVQAGGSLRLSCAASGSIFGYNVMGWYRQAPGKERELVAAISSSTGSTNYADSVKGRFTISRDNAKNTVYLQMNSLKPEDTAVYYCAVDPYVHWTTKLYDYWGQGSQVTVSS” was “low polyreactivity”; that for “QVQLVESGGGLVQAGGSLRLSCAASGITFFTYAMGWYRQAPGKERELVATISRSGGRTYYADSVKGRFTISRDNAKNTVYLQMNSLKPEDTAVYYCAARTYYWGALIVSYDYWGQGTQVTVSS” was “low polyreactivity”.
As to “QVQLVDSGGGLVQAGGSLRLSCAASGSTFYYNAMGWYRQAPGKERELVARISRSGGSTYADSVKGRFTISRDNAKNTVYLQMNSMKPEDTAVYYCNAVAYGTPEFTSYAVRYDYWGQGTQVTVSS”, the “polyreactivity (PSR sort gate)” value was “low polyreactivity”.
Turning to “QVQLVESGGGLVQAGGSLRLSFAASGSTFDWYVMGWYRQAPGKERELVAAINQGSGSTYYADSVKGRFTISRDNAKNTVYFQMNSLKPEDTAVYYCAADRYGAGYLYWPYDYWGQGTQVTVSS”, the “polyreactivity (PSR sort gate)” value is listed as “low polyreactivity”.
The value for “QVQLVESGGRLVQAGGSLRLSCAASGRIFLSYAMGWYRQAPGKERELVAAISRSGGRTYYADSVKGRFTISRDNAKNTVYLQMNSLKPEDTAVYYCNVVVYVLRHYLRYDYWGQGTQVTVSS” was “high polyreactivity”; that for “QVQLVESGGGLVQAGGSLRLSCAASGIFSRYAMGWYIQAPGKERELVAAISSGDSTNYADSVKGRFTISRDNAKNTVYLQMNSLKPEDTAVYYCATERSHLATGQGYYYVQTFYYWGQGTQVTVSS” was “low polyreactivity”.
“QVQLVESGGGLVQAGGSLRLSCAASGSTFRLYTMGWYRPAPVKERELVAAITSGGSTNYADSVKGRFTISRDNAKNTVYLQMNSLKPEDTSVYYCAIAKRFPSFDYWGQGTQVTVSS”: the “polyreactivity (PSR sort gate)” value is recorded as “low polyreactivity”.
The value for “QVQLVESGVGLVQAGGSLRLSCAASGITFVGYAMGWSRQAPGKERELVASITRGGGSTYYADSVKGRFTISRDNAKNTVYLQMNSLKPEDTAVYYCAARSHSTYYYWGQGTQVTVSS” was “high polyreactivity”.
Next, “QVQLVESGGGLVQAGGSLRLSCAASGRIFRYNALGWYRQAPGKERELVAAITWNGASTFYADSVKGRFTISRDNAKNTVYLQMNSLKPEDTAVYYCATVRDISGYLYWSYNLYDYWGQGTQVTVSS”: “high polyreactivity”; “QVQLVESGGGLVQAGGSLRLSCAASGGTFTGYAMGWYRQAPGKERELVAAISYSGTRTYYADSVKGRFTISRDNAKNTVYLQMNSLKPEDTAVYYCNALYAIWHDYWGQGTQVTVSS”: “high polyreactivity”.
The value for “QVQLVESGGGLVQAGGSLRLSCAASGITFRLYAMGWSRQAPGKEREFVAAISRRGGSTYYADSVKGRFTISRDNAKNSVYLQMNSLKPEDTAVYYCARYGLVYALGYWGQGTQVTVSS” was “high polyreactivity”.
Regarding “QVQLVESGGGLFKAGGSLRLSCAASGSTLPGYAMGWYRQAPGKERELVAAITGSGGRTYYADSVKGRFTISRDNAKYTVYLQMNSLKPEDTAVYYCGRGQRVYRSQGDYWGQGSQVTVSS”, the “polyreactivity (PSR sort gate)” value is on record as “high polyreactivity”.
Regarding “QVQLVESGGGLVQAGGSLRLSCAASGFTFRYYAMGWYRQAAGKDRELVAAISSGGRTYYADSVKGRFKISRDNAKNTVYLQMNSLKPADTAVYYCNASRHFRRVEYDYWGQGTQVTVSS”, the “polyreactivity (PSR sort gate)” value is on record as “high polyreactivity”.
The value for “QVQLVESGGGLVQAGGSLRLSCAASGSTFDRNVMGWNRQAPGKERELVAAISRVSSTNYADSVKGRFTISRDNAKNTVYLQMHSLKPEDTAVYYCAADRAGSIMNYWGQGSQVTVSS” was “low polyreactivity”; that for “QVQLVESGGGLVQAGGSLRLSCAASGFIFGGYAMGWYRQAPGKERELVAAISYGGGSTYYADSVNGRFTISRYNAKNTVYLQMNSLKPEDTAVYYCAADIPGYRYTGYRRGYWGQGTQVTVSS” was “high polyreactivity”.
Next, “QVQLVESGGGLVQAGGSLRLSCAASGIIFVSNAMGWYRQAPGKERELVATINWSDDSTYYADSVKGRFTISRDNAKNTVYLQMNSLKPEDTAVYYCNKELYPVGDYEYWGLGTQVTVSS”: “low polyreactivity”; “QVQHVESGGGLVQAGGSLRLSCAASGSTFVQNAMGWYRQAPGKERELVAAISRSGGRTYYAYSVKGRFTISRDNAKNTVYLQMNSLKPEDTAVYYCAARYPVRPDDGYWGKGTQVTVSS”: “high polyreactivity”; “QVQLVESGGGLVQAGGSLRLSCAASRFIFRRNAMGWYRQAPGKERELVAAITLSGGSTYYADSVKGRFTISRDNAKNTVYLQMKSLKPEDTAFYFCAARPGYYTRYDYWGQGTQVTVSS”: “low polyreactivity”.
Turning to “QVQLVDSGGGLVQAGGSLRLSCAASGRTFATYAMGWNRQAPGKERELVAAISSGGSTYYADSVKGRFTISRDNAKNNVYLQMNRLKPDDTAVYYCAAEVWFPDRWMDYWGQGTQVTVSS”, the “polyreactivity (PSR sort gate)” value is “high polyreactivity”.
The value for “QVQLVESWGGLVQAGASLRLSSAASGSIFGSYAMGSYRQAPGKERQLVAAITGIGGSTYYADSVKGRFTITRDNAKNTVYLQLNSLKPEDTAVYYCATRVRYRAPVVRGNYWGQGTQVTVSS” was “high polyreactivity”; that for “QVQLVESGGGLVQAGGSLRLSCAATGRTFAVYAMGWYRQAPGKERELVAAISSGGSTYYADSVKGRFTIARDNAKNTVYLQMNSLKPEDTAVYYCTARWGYRRGYWGQGTQVTVSS” was “high polyreactivity”.
The value for “QVQLVESGGGLVQAGGSLRLSCAASGSIFDVNAMGWYRPAPGKERELVAAISDSGGSTYYADSVKGRFTISRDNAKNTVYLQMNSLQPQDTAVYSCNADWSWYNYYDFDYWGQGTQVTVSS” was “low polyreactivity”; that for “QVQLVESGGGLVQAGGSLRLSCAASGSTFVSYAMGWYRQAPGKERELVAAISWSGGSTYYADSVKGRFTISRDNAKNTVYLQMNSLKTEDTAVYYCAAELDWWYDYWGQGTQVTVSS” was “high polyreactivity”.
The value for “QVQLVESGGGLVQAGGSLRLSCAASGSIFYFNAMGWYRQAPGKERELVAAITYSGGSTYYADSVKGRFTISRDNAKNTVYLQMNSLKPEDTAVYYCNAQVYYSVRGYPYGYYRNDYWGQGTQVTVSS” was “low polyreactivity”.
As for “QVQLVESGGGLVQAGGSLRLSCAASGSILSHNAMGWYRQAPGKERELVAAITTSGSTTYADSVKGRFTISRDNAKNTVYLQMNSLKPEDTAVYYCNARPDSWSDTAQNRYDYWGQGTQVTVSS”, the “polyreactivity (PSR sort gate)” value is recorded as “low polyreactivity”.
In the case of “QVQLVESGGGLVQAGGSLRLSCAASGHIYFYYTMGWYRQAPGKERDLVAGITIGGSTNYADSVKGRFTISRDNAKNTVYLQMNSLKPEDTAVYYCNVVKYVYIYSYWEYYYWGQGTQVTVSS”, the “polyreactivity (PSR sort gate)” value is on record as “low polyreactivity”.
For “QVQLVESGGGLVQAGGSLRLSCAASGSIFSAYAMGWYRQAPGKEREFVAGITSSGGRTYYADSVKGRFTISRDNAKNTVYLQMNSLKPEDTAVYYCAARFYKKDRRAYGYWGQGTQVTVSS”, the “polyreactivity (PSR sort gate)” value is “high polyreactivity”.
The value for “QVQLVESGGGLVQAGGSLRLSCAASGRTFRTYVMGWYRRAPGKEREFVAGITWSSGSTRYADSVKGRFTISRDNAKNTVYLQMNSLKPEDTAVYYCAAKRWPGTDGYWGQGTQVTVSS” was “high polyreactivity”; that for “QVQLVESGGGLVQAGGSLRLSCAASGRTFYKNTMGWYRQAPGKERELVATIYQRGGSTYYADSVKGRFTISRDNAKNTVYLQMNSLKREDTAVYYCNARKYTQSIHYDYWGQGTQVTVSS” was “high polyreactivity”.
The value for “QVQLVESGGGLVQAGGSLRLSCAASGSTFVQYVMGWYRQAPGKERELVAAISSSGGSTYYADSVKGRFTISRDNAKNTVYLQMNSLKPEDTAVYDCAARRLPRPWTSTSDYWGQGTQVTVSS” was “high polyreactivity”; that for “QVQLVESGGGLVQAGGSLRLSCAASGSIFYSNAMGWYRQAPGKERELVARITWSGGSTYYADSVKGRFTISRDNAKNTVYLQMNSLKPEDTAVYYCNKVIFRYFTTRPTRTYEYWGQGTQVTVSS” was “low polyreactivity”; that for “QVQLVESGGGLVQAGGSLRLSCAASGRIFPYYDMGWYRQAPGKERELVAGITTSGGTTYADSVKGRFTISRDNAKNTVYLQMNSLKTEDTAVYYCNKLRLRLSRWTYDYWGHGTQVTVSS” was “low polyreactivity”.
The value for “QVQLVESGGGLVQAGGSLRLSCAASGSTYYYYAMGSYRPAPGKERELVAAINTSGGITYYADSVKGRFTISRDNAKNTVYLQMNSLKPEDTAVYYCAARNRSYCGTFGSYNYDYWGQGTQVTVSS” was “high polyreactivity”.
